Experimental data as given in US20130280162A1 (IFOM FONDAZIONE ISTITUTO FIRC DI ONCOLOGIA MOLECOLARE, published 2013).

Assays:
vitronectin (VN) = molecular target: T1, vitronectin (VN) (human, UniProt P04004 20-478); assay: plate assay: uPAR/mFc (5 nM) with increasing uPA on immobilized VN (FIG. 4C)
T1 construct: also called immobilized VN
Description: 96-well immuno plates (NUNC MaxiSorb, blackwell) were coated with pro-uPA or VN (100 μl, 10 nM) diluted in coating buffer (50 mM sodium carbonate, pH 9.6) at 4° C. ON. Plates were washed with wash buffer (phosphate buffered saline (PBS) containing 0.1% Tween-20 (PBS-T)) and non-specific binding sites blocked (0.15 ml/well) with blocking buffer (PBS containing 2% bovine serum albumin (BSA)) for 1-2 hour at RT. […] The binding was allowed to occur for 1-2 hours at RT and the plates washed three times with wash buffer. Bound uPAR/mFc was detected by sequential incubations with a biotinylated goat anti-mouse Fc antibody (Sigma) and Eu³⁺ labeled streptavidin (Perkin Elmer). Bound Eu³⁺ was quantified by dissociation-enhanced time-resolved fluorescence measurement using an Envision Xcite plate reader (Perkin Elmer) using the DELFIA protocol.
To test the activity of uPAR-lock as an antagonist of the uPAR:VN-interaction the author utilized a binding assay in which uPAR/mFc is allowed to bind immobilized VN in the presence of uPA (FIG. 4C). In this assay uPAR/mFc binds to immobilized VN with high affinity in an uPA-dependent manner. To test the activity of uPAR-lock the author conducted the experiment with a fixed concentration of uPAR/mFc (1 nM) and an excess of uPA (5 nM) mixed with increasing concentrations of uPAR-lock or uPA for comparison (FIG. 4D). […]

[1] = molecular target: T2, urokinase-type plasminogen activator (uPA) (human, UniProt P00749 21-431); assay: plate assay: increasing uPAR/mFc on immobilized uPA, anti-mouse Fc and Eu-streptavidin (FIG. 4A)
T2 construct: also called pro-uPA; immobilized uPA
Description: Immobilized uPA was incubated with increasing concentrations of uPAR tagged with a mouse Fc (uPAR/mFc). After washing bound uPAR/mFc was quantified using a biotinylated anti-mouse Fc antibody and Europium labeled streptavidin. Note that uPAR/mFc display specific high-affinity binding to immobilized uPA.
96-well immuno plates (NUNC MaxiSorb, blackwell) were coated with pro-uPA or VN (100 μl, 10 nM) diluted in coating buffer (50 mM sodium carbonate, pH 9.6) at 4° C. ON. Plates were washed with wash buffer (phosphate buffered saline (PBS) containing 0.1% Tween-20 (PBS-T)) and non-specific binding sites blocked (0.15 ml/well) with blocking buffer (PBS containing 2% bovine serum albumin (BSA)) for 1-2 hour at RT. After washing with PBS-T, wells were incubated with uPAR/mFc (1 nM) in the presence or absence of the agonists and antagonists to be tested prepared in dilution buffer (PBS containing 1% BSA). The binding was allowed to occur for 1-2 hours at RT and the plates washed three times with wash buffer. Bound uPAR/mFc was detected by sequential incubations with a biotinylated goat anti-mouse Fc antibody (Sigma) and Eu³⁺ labeled streptavidin (Perkin Elmer). Bound Eu³⁺ was quantified by dissociation-enhanced time-resolved fluorescence measurement using an Envision Xcite plate reader (Perkin Elmer) using the DELFIA protocol.

T1 sequence (P04004 20-478): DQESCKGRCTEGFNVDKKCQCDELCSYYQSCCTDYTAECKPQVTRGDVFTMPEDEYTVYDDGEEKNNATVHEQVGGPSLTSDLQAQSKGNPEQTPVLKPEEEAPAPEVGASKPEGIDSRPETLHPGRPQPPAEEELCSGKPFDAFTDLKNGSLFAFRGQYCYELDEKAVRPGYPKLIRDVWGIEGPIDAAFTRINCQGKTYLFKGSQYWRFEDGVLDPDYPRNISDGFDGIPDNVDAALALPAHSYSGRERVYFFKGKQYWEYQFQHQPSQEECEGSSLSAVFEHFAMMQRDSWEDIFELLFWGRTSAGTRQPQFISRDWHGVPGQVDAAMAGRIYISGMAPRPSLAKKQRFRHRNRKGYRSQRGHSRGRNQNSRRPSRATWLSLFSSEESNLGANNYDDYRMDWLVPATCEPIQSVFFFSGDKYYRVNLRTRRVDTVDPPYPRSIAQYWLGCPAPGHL

- binding result (vitronectin (VN)): binds
- binding result [1]: binds
B1: uPAR/mFc (human uPAR tagged with a murine immunoglobulin heavy chain constant region) (Fc fusion)
chain: LRCMQCKTNGDCRVEECALGQDLCRTTIVRLWEEGEELELVEKSCTHSEKTNRTLSYRTGLKITSLTEVVCGLDLCNQGNSGRAVTYSRSRYLECISCGSSDMSCERGRHQSLQCRSPEEQCLDVVTHWIQEGEEGRPKDDRHLRGCGYLPGCPGSNGFHNNDTFHFLKCCNTTKCNEGPILELENLPQNGRQCYSCKGNSTHGCSSEETFLIDCRGPMNQCLVATGTHEPKNQSYMVRGCATASMCQHAHLGDAFSMNHIDVSCCTKSGCNHPDLDLEVLFQGPLEAGAG
notes: also called uPAR tagged with a mouse Fc; Fc-tagged uPAR; not shown: mouse immunoglobulin IgG1 heavy chain, amino acids 216-441 numbered according to Adetugbo 1978 (clone IRAVp968B035D); th
